“And” between values parts separate entries of the source, which are not always exact repeats. Identical values can stand only once. Values belong to the molecule of their own block, whether it stands above or below them. Bridge positions count the residues as written; N and C are the ends. Square brackets hold non-standard residues; d marks the D form. Ends that are not written are not given here. Nle = CCCC[C@H](N)C(=O)O; Abu = CC[C@H](N)C(=O)O
How the values were obtained:
[1] = target: T1, human melanocortin-4 (MC-4) receptors (Homo sapiens, UniProt P32245); assay type: binding; conditions: HEK 293 cell membranes; about […] 125I-NDP-α-MSH; 180 minutes at 25 C; read-out: hMC4 IC50 (nM) 125I NDP-MSH
T1 construct: expressed in transfected cells; membrane fraction used
T1 sequence (P32245 whole entry): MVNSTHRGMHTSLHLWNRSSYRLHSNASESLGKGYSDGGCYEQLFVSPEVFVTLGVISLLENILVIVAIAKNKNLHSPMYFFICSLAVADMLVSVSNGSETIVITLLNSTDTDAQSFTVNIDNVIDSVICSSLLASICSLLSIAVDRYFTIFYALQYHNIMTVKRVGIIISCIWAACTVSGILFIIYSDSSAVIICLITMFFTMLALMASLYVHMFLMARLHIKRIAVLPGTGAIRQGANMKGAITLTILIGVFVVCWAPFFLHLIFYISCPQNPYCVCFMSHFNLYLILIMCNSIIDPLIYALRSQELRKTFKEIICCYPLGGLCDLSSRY

[2] = target: T2, human melanocortin-3 (MC-3) receptors (Homo sapiens, UniProt P41968); experiment: Melanocortin receptor binding assay, 125I-AGRP competition, MC-3; conditions: Table II; HEK 293 cell membranes; 125I-AGRP 1.10 nM; read-out: hMC3 IC50 (nM) 125I-AGRP
T2 construct: expressed in transfected cells; membrane fraction used
T2 sequence (P41968 whole entry): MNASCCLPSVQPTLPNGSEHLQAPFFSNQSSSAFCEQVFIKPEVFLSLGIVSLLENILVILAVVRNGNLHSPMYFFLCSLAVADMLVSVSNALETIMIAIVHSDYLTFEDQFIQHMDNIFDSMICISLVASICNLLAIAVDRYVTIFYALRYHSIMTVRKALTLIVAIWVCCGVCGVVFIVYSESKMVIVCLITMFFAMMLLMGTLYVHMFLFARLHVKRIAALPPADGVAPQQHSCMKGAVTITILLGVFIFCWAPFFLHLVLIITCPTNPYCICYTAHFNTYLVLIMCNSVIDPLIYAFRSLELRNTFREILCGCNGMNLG

[3] = target: T2, human melanocortin-3 (MC-3) receptors; experiment: Melanocortin receptor binding assay, 125I-NDP-alpha-MSH competition, MC-3; conditions: HEK 293 cell membranes; about […] 125I-NDP-α-MSH; 180 minutes at 25 C; read-out: hMC3 IC50 (nM) 125I NDP-MSH
[4] = assay type: binding, human; conditions: Table II; HEK 293 cell membranes; 125I-AGRP 1.10 nM; read-out: hMC3 IC50 (nM) 125I-AGRP
[5] = target: T3, human melanocortin-3 (MC-3) receptor (human, UniProt P41968); experiment: displacement of 125I-NDP-alpha-MSH, membranes of HEK 293 cells with hMC3 (value column 3)
[6] = target: T3, human melanocortin-3 (MC-3) receptor; experiment: displacement of 125I-AGRP, membranes of HEK 293 cells with hMC3 (value column 4)
[7] = target: T4, human melanocortin-4 (MC-4) receptor (human, UniProt P32245); experiment: displacement of 125I-NDP-alpha-MSH, membranes of HEK 293 cells with hMC4 (value column 1)
T4 sequence (P32245 whole entry): as the sequence (P32245 whole entry) above

[8] = target: T4, human melanocortin-4 (MC-4) receptor; experiment: displacement of 125I-AGRP, membranes of HEK 293 cells with hMC4 (value column 2; its head prints hMC3)

Molecule: HESCLGQQVP[Abu][Abu]DP[Abu]ATCYCRFFNAFCY[Abu]RKL (cysteine pairing not given here) [SEQ ID NO:3]
IC50 [1]: 900 nM
IC50 [2]: > 1000 nM
IC50 [3]: > 1000 nM
IC50 [4]: 160 nM

Molecule: RNSCKPPAPA[Abu][Abu]DP[Abu]ASCQCRFFRSACS[Abu]RVL (cysteine pairing not given here) [SEQ ID NO:14]
IC50 [1]: > 1000 nM
IC50 [2]: > 1000 nM
IC50 [3]: > 1000 nM
IC50 [4]: 900 nM

Molecule: RNSCKPPAPAC[Abu]DP[Abu]ASCQCRFFRSACSCRVL (cysteine pairing not given here) [SEQ ID NO:13]
IC50 [1]: 1000 nM
IC50 [2]: > 1000 nM
IC50 [3]: > 1000 nM
IC50 [4]: 60 nM

Molecule: [Abu][Abu]DPCAT[Abu]YCRFFNAFCY[Abu]RKLGTAMNPCSRT (cysteine pairing not given here) [SEQ ID NO:9]
IC50 [1]: 600 nM
IC50 [2]: 700 nM
IC50 [3]: > 1000 nM
IC50 [4]: 73 nM

Molecule: C[Abu]DPCAT[Abu]Y[Abu]RFFNAF[Abu]YCRKLGTAMNPCSRT (cysteine pairing not given here) [SEQ ID NO:11]
IC50 [1]: > 1000 nM
IC50 [2]: > 1000 nM
IC50 [3]: > 1000 nM
IC50 [4]: 800 nM

Molecule: HESCLGQQVPC[Abu]DP[Abu]ATCYCRFFNAFCYCRKL (cysteine pairing not given here) [SEQ ID NO:2]
IC50 [1]: 200 nM
IC50 [2]: 850 nM
IC50 [3]: > 1000 nM

Molecule: RNS[Abu]KPPAPAC[Abu]DP[Abu]AS[Abu]QCRFFRSACSCRVL (cysteine pairing not given here) [SEQ ID NO:15]
IC50 [1]: 800 nM
IC50 [2]: > 1000 nM
IC50 [3]: > 1000 nM
IC50 [4]: 45 nM

Molecule: AC[Abu]DP[Abu]AS[Abu]QCRFFRSACSCRVL (cysteine pairing not given here) [SEQ ID NO:16]
IC50 [1]: > 1000 nM
IC50 [2]: > 1000 nM
IC50 [3]: > 1000 nM
IC50 [4]: 280 nM

Molecule: [Abu][Abu]DPCAS[Abu]QCRFFRSACS[Abu]RVLSLNC (cysteine pairing not given here) [SEQ ID NO:17]
IC50 [1]: > 1000 nM
IC50 [2]: > 1000 nM
IC50 [3]: > 1000 nM
IC50 [4]: > 1000 nM

Molecule: C[Abu]DPCAS[Abu]Q[Abu]RFFRSA[Abu]SCRVLSLNC (cysteine pairing not given here) [SEQ ID NO:18]
IC50 [1]: > 1000 nM
IC50 [2]: > 1000 nM
IC50 [3]: > 1000 nM
IC50 [4]: > 1000 nM

Molecule: Cys-Abu-Asp-Pro-Abu-Ala-Thr-Abu-Tyr-Cys-Arg-Phe-Phe-Asn-Ala-Phe-Cys-Tyr-Cys-Arg-Lys-Leu-Gly-Thr-Ala-Met-Asn-Pro-Abu-Ser-Arg-Thr [SEQ ID NO:10]
IC50 [1]: 102 nM
IC50 [2]: 147 nM
IC50 [3]: 500 nM
IC50 [4]: 15 nM

Molecule: C[Abu]DPCAT[Abu]YCRFFNAFCYCRKLGTAMNPCSRT (cysteine pairing not given here) [SEQ ID NO:8]
IC50 [2]: 400 nM

Molecule: His-Glu-Ser-Abu-Leu-Gly-Gln-Gln-Val-Pro-Cys-Abu-Asp-Pro-Abu-Ala-Thr-Abu-Tyr-Cys-Arg-Phe-Phe-Asn-Ala-Phe-Cys-Tyr-Cys-Arg-Lys-Leu [SEQ ID NO:4]
IC50 [1]: 100 nM
IC50 [2]: 90 nM
IC50 [3]: 850 nM

Molecule: HESCLGQQVPC[Abu]DP[Abu]ATCY[Abu]RFFNAF[Abu]YCRKL (cysteine pairing not given here) [SEQ ID NO:5]
IC50 [1]: > 1000 nM
IC50 [2]: > 1000 nM
IC50 [3]: > 1000 nM
IC50 [4]: 377 nM

Further lines, results first:

IC50 [5]: 850 nM
IC50 [6]: 90 nM
IC50 [7]: 100 nM
Molecule: HES[Abu]LGQQVPC[Abu]DP[Abu]AT[Abu]YCRFFNAFCYCRKL (disulfide (positions not given here)) [peptide of SEQ ID NO:4]

IC50 [5]: > 1000 nM
IC50 [6]: > 1000 nM
IC50 [8]: > 1000 nM
IC50 [7]: > 1000 nM
B1: peptide of SEQ ID NO:17 (peptide)
peptide: [Abu][Abu]DPCAS[Abu]QCRFFRSACS[Abu]RVLSLNC
modifications: disulfide (positions not given here); also: oxidised to disulfides, pairs not given here

IC50 [5]: > 1000 nM
IC50 [6]: > 1000 nM
IC50 [8]: 60 nM
IC50 [7]: 1000 nM
B2: peptide of SEQ ID NO:13 (peptide)
peptide: RNSCKPPAPAC[Abu]DP[Abu]ASCQCRFFRSACSCRVL
modifications: disulfide (positions not given here); not fully specified (bridges); printed as Arg-Asn-Ser-Cys-Lys-Pro-Pro-Ala-Pro-Ala-Cys-Abu-Asp-Pro-Abu-Ala-Ser-Cys-Gln-Cys-Arg-Phe-Phe-Arg-Ser-Ala-Cys-Ser-Cys-Arg-Val-Leu; also: three disulfides, pairing not given here

IC50 [5]: 0.9 nM and 0.7 nM
IC50 [7]: 8 nM
Molecule: Ac-[Nle]H[dF]RWK [NDP-alpha-MSH]

IC50 [5]: > 1000 nM
IC50 [6]: > 1000 nM
IC50 [7]: > 1000 nM
Molecule: CRFFNAFC (disulfide 1-8 (inferred)) [peptide of SEQ ID NO:6]

IC50 [5]: > 1000 nM
IC50 [6]: > 1000 nM
IC50 [8]: 45 nM
IC50 [7]: 800 nM
Molecule: RNS[Abu]KPPAPAC[Abu]DP[Abu]AS[Abu]QCRFFRSACSCRVL (disulfide (positions not given here)) [peptide of SEQ ID NO:15]

IC50 [5]: > 1000 nM
IC50 [6]: > 1000 nM
IC50 [8]: 377 nM
IC50 [7]: > 1000 nM
Molecule: HESCLGQQVPC[Abu]DP[Abu]ATCY[Abu]RFFNAF[Abu]YCRKL (disulfide (positions not given here)) [peptide of SEQ ID NO:5]

IC50 [5]: > 1000 nM
IC50 [6]: > 1000 nM
IC50 [8]: > 1000 nM
IC50 [7]: > 1000 nM
B3: peptide of SEQ ID NO:18 (peptide)
peptide: C[Abu]DPCAS[Abu]Q[Abu]RFFRSA[Abu]SCRVLSLNC
modifications: disulfide (positions not given here); also: oxidised to disulfides, pairs not given here

IC50 [5]: > 1000 nM
IC50 [6]: > 1000 nM
IC50 [8]: 900 nM
IC50 [7]: > 1000 nM
B4: peptide of SEQ ID NO:14 (peptide)
peptide: RNSCKPPAPA[Abu][Abu]DP[Abu]ASCQCRFFRSACS[Abu]RVL
modifications: disulfide (positions not given here); also: oxidised to disulfides, pairs not given here

IC50 [5]: > 1000 nM
IC50 [6]: > 1000 nM
IC50 [8]: 280 nM
IC50 [7]: > 1000 nM
Molecule: AC[Abu]DP[Abu]AS[Abu]QCRFFRSACSCRVL (disulfide (positions not given here)) [peptide of SEQ ID NO:16]

IC50 [5]: > 1000 nM
IC50 [6]: > 1000 nM
IC50 [8]: 800 nM
IC50 [7]: > 1000 nM
B5: peptide of SEQ ID NO:11 (peptide)
peptide: C[Abu]DPCAT[Abu]Y[Abu]RFFNAF[Abu]YCRKLGTAMNPCSRT
modifications: disulfide (positions not given here); also: oxidised to disulfides, pairs not given here

IC50 [5]: > 1000 nM
IC50 [6]: 700 nM
IC50 [8]: 73 nM
IC50 [7]: 600 nM
B6: peptide of SEQ ID NO:9 (peptide)
peptide: [Abu][Abu]DPCAT[Abu]YCRFFNAFCY[Abu]RKLGTAMNPCSRT
modifications: disulfide (positions not given here); not fully specified (bridges); also: disulfide pairing not given here

IC50 [5]: > 1000 nM
IC50 [6]: 850 nM
IC50 [8]: 50 nM
IC50 [7]: 200 nM
Molecule: HESCLGQQVPC[Abu]DP[Abu]ATCYCRFFNAFCYCRKL (disulfide (positions not given here)) [peptide of SEQ ID NO:2]

IC50 [5]: 2 nM
Molecule: MRCVRLHESCLGQQVPCCDPCATCYCRFFNAFCYCRKLGTAMNPCSRT [Md65-AGRP]

IC50 [5]: > 1000 nM
IC50 [6]: > 1000 nM
IC50 [8]: 160 nM
IC50 [7]: 900 nM
Molecule: HESCLGQQVP[Abu][Abu]DP[Abu]ATCYCRFFNAFCY[Abu]RKL (disulfide (positions not given here)) [peptide of SEQ ID NO:3]

IC50 [5]: 20 nM and 10 nM
IC50 [6]: 0.7 nM
B7: Mkd5-AGRP (ligand)
chain: APMEGIRRPDQALLPELPGLGLRAPLKKTTAEQAEEDLLQEAQALAEVLDLQDREPRSSRRCVRLHESCLGQQVPCCDPCATCYCRFFNAFCYCRKLGTAMNPCSRT

IC50 [5]: > 1000 nM
IC50 [6]: > 1000 nM
IC50 [7]: > 1000 nM
Molecule: CRFFGSAC (disulfide 1-8 (inferred)) [peptide of SEQ ID NO:7]
